Tested on: Escherichia coli TOP10
Assay: shrunken log2 fold change of peptide-encoding DNA abundance (4.5 h post-induction vs induction); higher = less antimicrobial activity (less host growth inhibition)
Conditions: time post-induction: 4.5 h; library: site-saturation at positions 5, 18, 19, 20
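Also: peptides expressed intracellularly from a pBAD plasmid library in pooled LB shake-flask culture, induced with 0.3% L-arabinose, DNA abundance read by NGS, three biological replicates, DESeq2 with apeglm shrinkage.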

Sequence	shrunken log2 fold change
RRIRIRPPRLPRPRPRPVNTPRP	-1.06
RRIRKRPPRLPRPRPRPRQTPRP	0.0644
RRIRERPPRLPRPRPRPLGSPRP	-0.0249
RRIRKRPPRLPRPRPRPSCDPRP	0.141
RRIRKRPPRLPRPRPRPSFEPRP	0.000728
RRIRERPPRLPRPRPRPRNCPRP	-0.102
RRIRARPPRLPRPRPRPCRAPRP	0.261
RRIRNRPPRLPRPRPRPAMKPRP	0.284
RRIRDRPPRLPRPRPRPKSEPRP	0.0995
RRIRCRPPRLPRPRPRPRCHPRP	0.0572
RRIRIRPPRLPRPRPRPFMLPRP	-0.407
RRIRVRPPRLPRPRPRPLSCPRP	-0.307
RRIRWRPPRLPRPRPRPCRTPRP	0.112
RRIRTRPPRLPRPRPRPSPMPRP	-0.163
RRIRPRPPRLPRPRPRPRVNPRP	-0.194
RRIRDRPPRLPRPRPRPGGDPRP	0.908
RRIRNRPPRLPRPRPRPSASPRP	-0.2
RRIRSRPPRLPRPRPRPLTKPRP	-0.175
RRIRFRPPRLPRPRPRPCFVPRP	-0.578
RRIRERPPRLPRPRPRPYLFPRP	-0.137
RRIRMRPPRLPRPRPRPSPRPRP	1.05
RRIRVRPPRLPRPRPRPLHLPRP	-0.133
RRIRPRPPRLPRPRPRPPETPRP	0.407
RRIRIRPPRLPRPRPRPDSHPRP	-0.379
RRIRWRPPRLPRPRPRPCGCPRP	-0.0615

Sequence	shrunken log2 fold change
RRIRQRPPRLPRPRPRPRGQPRP	0.726
RRIRLRPPRLPRPRPRPQECPRP	-0.00874
RRIRYRPPRLPRPRPRPEPFPRP	0.0898
RRIRWRPPRLPRPRPRPMSNPRP	0.0465
RRIRRRPPRLPRPRPRPQWEPRP	-0.0504
RRIRVRPPRLPRPRPRPLEDPRP	0.144
RRIRIRPPRLPRPRPRPYQIPRP	-0.273
RRIRCRPPRLPRPRPRPRCVPRP	-0.0609
RRIRKRPPRLPRPRPRPPPTPRP	1.11
RRIRKRPPRLPRPRPRPQMWPRP	0.608
RRIRFRPPRLPRPRPRPGMVPRP	-0.0783
RRIRSRPPRLPRPRPRPKYTPRP	-0.518
RRIRMRPPRLPRPRPRPRWGPRP	0.279
RRIRNRPPRLPRPRPRPIKDPRP	-0.4
RRIRTRPPRLPRPRPRPVGDPRP	0.21
RRIRMRPPRLPRPRPRPWAAPRP	0.502
RRIRDRPPRLPRPRPRPIVYPRP	-0.0329
RRIRYRPPRLPRPRPRPLPLPRP	-0.197
RRIRNRPPRLPRPRPRPKKPPRP	-0.0506
RRIRRRPPRLPRPRPRPEWGPRP	0.0686
RRIRMRPPRLPRPRPRPNTMPRP	0.0324
RRIRFRPPRLPRPRPRPHYHPRP	-0.834
RRIRIRPPRLPRPRPRPPMDPRP	-0.372
RRIRMRPPRLPRPRPRPIPWPRP	-0.033
RRIRWRPPRLPRPRPRPDRDPRP	0.0716

Sequence	shrunken log2 fold change
RRIRTRPPRLPRPRPRPKADPRP	-0.0127
RRIRRRPPRLPRPRPRPNTDPRP	-0.106
RRIRRRPPRLPRPRPRPLWHPRP	1.15
RRIRCRPPRLPRPRPRPPGPPRP	0.337
RRIRARPPRLPRPRPRPWDQPRP	0.353
RRIRDRPPRLPRPRPRPNIHPRP	-0.214
RRIRLRPPRLPRPRPRPTPPPRP	0.648
RRIRDRPPRLPRPRPRPHNKPRP	-0.373
RRIRLRPPRLPRPRPRPYHLPRP	-0.213
RRIRGRPPRLPRPRPRPDKHPRP	0.0564
RRIRVRPPRLPRPRPRPIHAPRP	0.098
RRIRRRPPRLPRPRPRPANKPRP	0.0263
RRIRDRPPRLPRPRPRPGGKPRP	-0.0179
RRIRKRPPRLPRPRPRPPNLPRP	0.492
RRIRCRPPRLPRPRPRPVTFPRP	-0.294
RRIRVRPPRLPRPRPRPNVTPRP	-0.554
RRIRYRPPRLPRPRPRPFHEPRP	-0.245
RRIRYRPPRLPRPRPRPFPAPRP	-0.467
RRIRIRPPRLPRPRPRPNTLPRP	-0.818
RRIRVRPPRLPRPRPRPVNAPRP	-0.0836
RRIRFRPPRLPRPRPRPWLPPRP	-0.0149
RRIRYRPPRLPRPRPRPSSVPRP	-0.425
RRIRRRPPRLPRPRPRPYCNPRP	-0.834
RRIRMRPPRLPRPRPRPWKEPRP	0.0155
RRIRYRPPRLPRPRPRPNSVPRP	-0.257

Sequence	shrunken log2 fold change
RRIRTRPPRLPRPRPRPGGCPRP	0.26
RRIRSRPPRLPRPRPRPWVWPRP	0.39
RRIRPRPPRLPRPRPRPTCHPRP	1.02
RRIRARPPRLPRPRPRPWTVPRP	-0.0846
RRIRGRPPRLPRPRPRPYESPRP	0.133
RRIRKRPPRLPRPRPRPGSGPRP	0.708
RRIRPRPPRLPRPRPRPEEDPRP	0.192
RRIRHRPPRLPRPRPRPPNYPRP	-0.0558
RRIRNRPPRLPRPRPRPYPEPRP	-1.11
RRIRVRPPRLPRPRPRPVGLPRP	0.216
RRIRPRPPRLPRPRPRPFVHPRP	-0.246
RRIRYRPPRLPRPRPRPAGVPRP	0.0619
RRIRQRPPRLPRPRPRPGKPPRP	0.12
RRIRTRPPRLPRPRPRPRPQPRP	0.146
RRIRLRPPRLPRPRPRPINHPRP	-0.654
RRIRMRPPRLPRPRPRPQLHPRP	0.546
RRIRDRPPRLPRPRPRPQRKPRP	0.0137
RRIRYRPPRLPRPRPRPKPQPRP	-0.115
RRIRWRPPRLPRPRPRPFNHPRP	-0.405
RRIRFRPPRLPRPRPRPYRAPRP	-0.353
RRIRARPPRLPRPRPRPGHTPRP	0.129
RRIRCRPPRLPRPRPRPTYHPRP	-0.815
RRIRMRPPRLPRPRPRPTQRPRP	0.968
RRIRWRPPRLPRPRPRPFPPPRP	-0.0255
RRIRTRPPRLPRPRPRPAPQPRP	0.0544

Sequence	shrunken log2 fold change
RRIRMRPPRLPRPRPRPELSPRP	0.0644
RRIRARPPRLPRPRPRPSDYPRP	-0.108
RRIRARPPRLPRPRPRPARTPRP	0.584
RRIRERPPRLPRPRPRPPWYPRP	-0.227
RRIRKRPPRLPRPRPRPTESPRP	0.00281
RRIRVRPPRLPRPRPRPRCFPRP	0.05
RRIRNRPPRLPRPRPRPKLCPRP	0.163
RRIRVRPPRLPRPRPRPYNCPRP	-0.432
RRIRHRPPRLPRPRPRPLWNPRP	-1.07
RRIRQRPPRLPRPRPRPSHEPRP	-0.0209
RRIRGRPPRLPRPRPRPAVKPRP	0.0152
RRIRARPPRLPRPRPRPSWVPRP	-0.174
RRIRKRPPRLPRPRPRPYPGPRP	-0.142
RRIRVRPPRLPRPRPRPNCSPRP	0.0892
RRIRWRPPRLPRPRPRPAKVPRP	-0.177
RRIRQRPPRLPRPRPRPMQCPRP	-0.409
RRIRTRPPRLPRPRPRPRELPRP	0.267
RRIRTRPPRLPRPRPRPMLFPRP	0.177
RRIRQRPPRLPRPRPRPYWNPRP	-1.21
RRIRERPPRLPRPRPRPYDRPRP	0.0251
RRIRCRPPRLPRPRPRPFEWPRP	-0.0143
RRIRHRPPRLPRPRPRPLDMPRP	-0.0339
RRIRGRPPRLPRPRPRPEYYPRP	0.166
RRIRCRPPRLPRPRPRPTGPPRP	0.669
RRIRVRPPRLPRPRPRPTLSPRP	-0.0525

Sequence	shrunken log2 fold change
RRIRGRPPRLPRPRPRPDGAPRP	1.03
RRIRPRPPRLPRPRPRPDQIPRP	-0.265
RRIRFRPPRLPRPRPRPPGQPRP	1
RRIRSRPPRLPRPRPRPYMAPRP	-0.539
RRIRYRPPRLPRPRPRPIRFPRP	-0.0383
RRIRARPPRLPRPRPRPYHKPRP	-0.193
RRIRVRPPRLPRPRPRPADTPRP	-0.32
RRIRVRPPRLPRPRPRPNWHPRP	-0.0428
RRIRCRPPRLPRPRPRPQINPRP	-0.685
RRIRCRPPRLPRPRPRPGPNPRP	0.296
RRIRFRPPRLPRPRPRPMNAPRP	-0.054
RRIRGRPPRLPRPRPRPLEEPRP	1.76
RRIRRRPPRLPRPRPRPCNEPRP	-0.0323
RRIRGRPPRLPRPRPRPRSDPRP	0.555
RRIRVRPPRLPRPRPRPTKTPRP	0.0337
RRIRGRPPRLPRPRPRPCEGPRP	0.364
RRIRSRPPRLPRPRPRPNCWPRP	0.292
RRIRCRPPRLPRPRPRPPESPRP	0.347
RRIRVRPPRLPRPRPRPREEPRP	0.493
RRIRERPPRLPRPRPRPMPVPRP	-0.107
RRIRARPPRLPRPRPRPGEEPRP	0.999
RRIRPRPPRLPRPRPRPHTFPRP	-0.667
RRIRGRPPRLPRPRPRPERRPRP	0.277
RRIRCRPPRLPRPRPRPMTIPRP	-0.128
RRIRDRPPRLPRPRPRPTCFPRP	0.0704
